Reference: patent US20110124071A1, “METHODS AND COMPOSITIONS FOR PRODUCING HYDROCARBONS” (priority 2009, published 2011)
Where two headings read alike, the source gives them in different places.

Tests used:
PCC7942_orf1594 protein = target: T1, PCC7942_orf1594 protein (Synechococcus elongatus, UniProt Q54765); experiment: acyl-ACP or acyl-CoA reductase enzyme assay, GC/MS; type: biochemical
T1 construct: His-tag (C); made in house; host or cells: E. coli BL21 (DE3)
T1 sequence (Q54765 1-341): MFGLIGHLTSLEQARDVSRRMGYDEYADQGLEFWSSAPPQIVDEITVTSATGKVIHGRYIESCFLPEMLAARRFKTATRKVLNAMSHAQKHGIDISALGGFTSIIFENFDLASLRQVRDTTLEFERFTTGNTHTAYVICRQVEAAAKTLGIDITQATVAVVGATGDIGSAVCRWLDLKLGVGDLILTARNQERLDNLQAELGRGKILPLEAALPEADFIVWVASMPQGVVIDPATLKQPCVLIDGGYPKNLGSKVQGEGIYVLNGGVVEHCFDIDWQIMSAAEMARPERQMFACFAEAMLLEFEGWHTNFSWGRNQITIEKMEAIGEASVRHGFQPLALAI
Experimental: The genomic DNA encoding S. elongatus PCC7492 orf1594 (SEQ ID NO: 66) was cloned into the NcoI and XhoI sites of vector pET-28b under the control of the T7 promoter. The resulting PCC7942_orf1594 protein contained a C-terminal His-tag. An E. coli BL21 strain (DE3) (Invitrogen) was transformed with the plasmid and PCC7942_orf1594 protein was expressed and purified as described in Example 22. The protein solution was stored in the following buffer: 50 mM sodium phosphate, pH 7.5, 100 mM NaCl, 1 mM THP, 10% glycerol. Protein concentration was determined using the Bradford assay (Bio-Rad). 2 mg/ml of PCC7942 orf1594 protein was obtained.
To test PCC7942_orf1594 protein for acyl-ACP or acyl-CoA reductase activity, the following enzyme assays were set-up. 100 μl reactions were set-up in 50 mM Tris-HCl buffer at pH 7.5 with the following components at their respective final concentrations: 10 μM of purified PCC7942_orf1594 protein, 0.01-1 mM acyl-CoA or acyl-ACP, 2 mM MgCl2, 0.2-2 mM NADPH. The reactions were incubated for 1 h at 37° C. and where stopped by adding 100 μl ethyl acetate (containing 5 mg/l 1-octadecene as internal standard). Samples were vortexed for 15 min and centrifuged at max speed for 3 min for phase separation. 80 μl of the top layer were transferred into GC glass vials and analyzed by GC/MS as described in Example 26. The amount of aldehyde formed was calculated based on the internal standard.

[1] = tested on: E. coli MG1655 ΔfadE lacZ::Ptrc ′tesA-fadD; experiment: Heterologous expression in a fatty acyl-CoA-producing E. coli strain, GC-MS; type: cell-based; conditions: for conversion of fatty aldehydes into alkanes/alkenes: decarbonylase coexpressed with acyl-ACP reductase in acyl-CoA-producing strain
Excerpt: The genomic DNA encoding Acaryochloris marina MBIC11017 AM1—4041 (YP—001518340; putative fatty aldehyde decarbonylase) (SEQ ID NO: 9) was synthesized and cloned into the NdeI and XhoI sites of vector OP-183 (pACYC derivative) under the control of the Ptrc promoter. The resulting construct was cotransformed with OP80-PCC7942—1594 into E. coli MG1655 ΔfadE lacZ::Ptrc ′tesA-fadD. This strain expresses a cytoplasmic version of the E. coli thioesterase, ′TesA, and the E. coli acyl-CoA synthetase, FadD, under the control of the Ptrc promoter, and therefore produces fatty acyl-CoAs. The cells were grown at 37° C. in M9 minimal media supplemented with 100 μg/ml spectinomycin and 100 μg/ml carbenicillin. The cells were cultured and extracted as in Example 3 and analyzed by GC-MS as described in Example 1.
The genomic DNA encoding Synechocystis sp. PCC6803 sll0208 (NP_442147; putative fatty aldehyde decarbonylase) (SEQ ID NO: 3) was synthesized and cloned into the NdeI and XhoI sites of vector OP-183 (pACYC derivative) under the control of the Ptrc promoter. The genomic DNA encoding Synechocystis sp. PCC6803 sll0209 (NP_442146; acyl-ACP reductase) (SEQ ID NO: 68) was synthesized and cloned into the NcoI and EcoRI sites of vector OP-183 (pACYC derivative) under the control of the Ptrc promoter. The resulting constructs were cotransformed with into E. coli MG1655 ΔfadE lacZ::Ptrc ′tesA-fadD. This strain expresses a cytoplasmic version of the E. coli thioesterase, ′TesA, and the E. coli acyl-CoA synthetase, FadD, under the control of the Ptrc promoter, and therefore produces fatty acyl-CoAs. The cells were grown at 37° C. in M9 minimal media supplemented with 100 μg/ml spectinomycin and 100 μg/ml carbenicillin. The cells were cultured and extracted as in Example 3 and analyzed by GC-MS as described in Example 26.

[2] = tested on: E. coli MG1655 ΔfadD lacZ::Ptrc-′tesA; experiment: Heterologous expression in a fatty aldehyde-producing E. coli strain with MSMEG—5739, GC-MS; type: cell-based; conditions: decarbonylase coexpressed with carboxylic acid reductase MSMEG—5739
E. coli MG1655 = experiment: Coexpression of putative decarbonylase with S. elongatus PCC7942 orf1594 in E. coli, GC-MS of extracts; type: cell-based; conditions: coexpressed with S. elongatus PCC7942 orf1594 in E. coli MG1655, M9 minimal media
Experimental: After a 1 μl splitless injection (inlet temperature held at 300° C.) onto the GC/MS column, the oven was held at 100° C. for 3 mins. The temperature was ramped up to 320° C. at a rate of 20° C./min. The oven was held at 320° C. for an additional 5 min. The flow rate of the carrier gas helium was 1.3 ml/min. The MS quadrapole scanned from 50 to 550 m/z. Retention times and fragmentation patterns of product peaks were compared with authentic references to confirm peak identity.
The genomic DNA encoding Synechococcus elongatus PCC7942 orf1594 (YP—400611; putative aldehyde-generating enzyme) (SEQ ID NO: 65) was amplified and cloned into the NcoI and EcoRI sites of vector OP-80 (pCL1920 derivative) under the control of the Ptrc promoter. The resulting construct (“OP80-PCC7942—1594”) was transformed into E. coli MG1655 and the cells were grown at 37° C. in M9 minimal media with 1% (w/v) glucose as carbon source and supplemented with 100 μg/ml spectinomycin. When the culture reached OD600 of 0.8-1.0, it was induced with 1 mM IPTG and cells were grown for an additional 18-20 h at 37° C. Cells from 0.5 ml of culture were extracted with 0.5 ml of ethyl acetate. After sonication for 60 min, the sample was centrifuged at 15,000 rpm for 5 min. The solvent layer was analyzed by GC-MS as described in Example 1.
The genomic DNA encoding Synechococcus elongatus PCC7942 orf1593 (YP—400610; putative decarbonylase) (SEQ ID NO: 1) was amplified and cloned into the NdeI and XhoI sites of vector OP-183 (pACYC derivative) under the control of the Ptrc promoter. The resulting construct was cotransformed with OP80-PCC7942—1594 into E. coli MG1655 and the cells were grown at 37° C. in M9 minimal media supplemented with 100 μg/ml spectinomycin and 100 μg/ml carbenicillin. The cells were cultured and extracted as in Example 3 and analyzed by GC-MS as described in Example 1. […]

[3] = in the presence of 2 mM NADPH, read-out: Km for the reduction by PCC7942_orf1594

## octadecenoyl-CoA
PCC7942_orf1594 protein; [3]
  Km: 82 ± 22 µM

## NC(=O)C1=CN([C@@H]2O[C@H](COP(=O)(O)OP(=O)(O)OC[C@H]3O[C@@H](n4cnc5c(N)ncnc54)[C@H](OP(=O)(O)O)[C@@H]3O)[C@@H](O)[C@H]2O)C=CC1 [NADPH]
PCC7942_orf1594 protein; in the presence of 0.5 mM octadecanoyl-CoA, read-out: Km value for NADPH for PCC7942_orf1594
  Km: 400 ± 80 µM

## NC(=O)C1=CN([C@@H]2O[C@H](COP(=O)(O)OP(=O)(O)OC[C@H]3O[C@@H](n4cnc5c(N)ncnc54)[C@H](O)[C@@H]3O)[C@@H](O)[C@H]2O)C=CC1 [NADH]
PCC7942_orf1594 protein; reduction of octadecanoyl-CoA to octadecanal
  support of reductase activity as electron donor: did not support reductase activity

B1: octadecenoyl-ACP (conjugate, UniProt Q31QV1 1-80, looked up)
Acyl carrier protein: MSQEDIFSKVKDIVAEQLSVDVAEVKPESSFQNDLGADSLDTVELVMALEEAFDIEIPDEAAEGIATVQDAVDFIASKAA
modifications: octadecenoyl acyl thioester
notes: acyl-ACP (acyl carrier protein) substrate of PCC7942_orf1594 reductase
PCC7942_orf1594 protein; [3]
  Km: 7.8 ± 2 µM

B2: Synechocystis sp. PCC6803 sll0208: Synechocystis sp. PCC6803 putative fatty aldehyde decarbonylase (SEQ ID NO: 3) (protein, listed as Synechocystis sp.)
chain: MPELAVRTEFDYSSEIYKDAYSRINAIVIEGEQEAYSNYLQMAELLPEDKEELTRLAKMENRHKKGFQACGNNLQVNPDMPYAQEFFAGLHGNFQHAFSEGKVVTCLLIQALIIEAFAIAAYNIYIPVADDFARKITEGVVKDEYTHLNYGEEWLKANFATAKEELEQANKENLPLVWKMLNQVQGDAKVLGMEKEALVEDFMISYGEALSNIGFSTREIMRMSSYGLAGV
[1]
  conversion of fatty aldehydes into alkanes/alkenes: octadecenal was converted into heptadecene

B3: RS9917—12945: Synechococcus sp. RS9917 putative decarbonylase (SEQ ID NO: 25) (protein, listed as Synechococcus sp.)
chain: MTQLDFASAAYREAYSRINGVVIVGEGLANRHFQMLARRIPADRDELQRLGRMEGDHASAFVGCGRNLGVVADLPLARRLFQPLHDLFKRHDHDGNRAECLVIQGLIVECFAVAAYRHYLPVADAYARPITAAVMNDESEHLDYAETWLQRHFDQVKARVSAVVVEALPLTLAMLQSLAADMRQIGMDPVETLASFSELFREALESVGFEAVEARRLLMRAAARMV
[2]
  conversion of fatty aldehydes provided by MSMEG—5739 to alkanes: converted fatty aldehydes provided by MSMEG—5739 to the corresponding alkanes
E. coli MG1655
  fatty aldehyde decarbonylase activity (alkane/alkene production): active fatty aldehyde decarbonylase

B4: Synechocystis sp. PCC6803 sll0209: Synechocystis sp. PCC6803 acyl-ACP reductase (SEQ ID NO: 68) (protein, listed as Synechocystis sp.)
chain: MFGLIGHLTSLEHAQAVAEDLGYPEYANQGLDFWCSAPPQVVDNFQVKSVTGQVIEGKYVESCFLPEMLTQRRIKAAIRKILNAMALAQKVGLDITALGGFSSIVFEEFNLKQNNQVRNVELDFQRFTTGNTHTAYVICRQVESGAKQLGIDLSQATVAVCGATGDIGSAVCRWLDSKHQVKELLLIARNRQRLENLQEELGRGKIMDLETALPQADIIVWVASMPKGVEIAGEMLKKPCLIVDGGYPKNLDTRVKADGVHILKGGIVEHSLDITWEIMKIVEMDIPSRQMFACFAEAILLEFEGWRTNFSWGRNQISVNKMEAIGEASVKHGFCPLVAL
[1]; reductase coexpressed with a fatty aldehyde decarbonylase
  use of acyl-CoA as substrate to produce fatty aldehydes: able to use acyl-CoA as a substrate
[1]; reductase expressed alone in acyl-CoA-producing strain
  production of fatty aldehydes or fatty alcohols: did not produce any fatty aldehydes or fatty alcohols

B5: AM1—4041: Acaryochloris marina MBIC11017 putative decarbonylase (SEQ ID NO: 9) (protein, listed as Acaryochloris marina)
chain: MPQTQAISEIDFYSDTYKDAYSRIDGIVIEGEQEAHENYIRLGEMLPEHQDDFIRLSKMEARHKKGFEACGRNLKVTCDLDFARRFFSDLHKNFQDAAAEDKVPTCLVIQSLIIECFAIAAYNIYIPVADDFARKITESVVKDEYQHLNYGEEWLKAHFDDVKAEIQEANRKNLPIVWRMLNEVDKDAAVLGMEKEALVEDFMIQYGEALSNIGFSTGEIMRMSAYGLVAA
[1]
  conversion of fatty aldehydes into alkanes/alkenes: converted into pentadecene, pentadecane and heptadecene
[2]
  conversion of fatty aldehydes provided by MSMEG—5739 to alkanes: converted fatty aldehydes provided by MSMEG—5739 to the corresponding alkanes
E. coli MG1655
  fatty aldehyde decarbonylase activity (alkane/alkene production): active fatty aldehyde decarbonylase
